# Measured values: the DeepSol protein solubility set
# Test: soluble on expression in E. coli; label from the status in PepcDB or PDB records
row,Sequence,soluble on expression in E. coli
1,MSLNIAKGEPVKITTIDVGNKSFPVKITFIDRKGVSYYIDVAMSRTNSGMEPADFQAEKRINYFPNAFSFTNPDVKTRESIQSKYIGQSVYPQKTIRVKQTELLRYTPLHIKDVQPEKAGTSATLLLTDIQGNTYQVKVDLKYDPILKNEDFIEDLFGFSDIRKKYPNISESNWLMLAKGEVKPGMTTEECKLAIGEPIEIRVRTDTRFETWLYRGKILEFENGILLRAKEGHHHHHH,soluble
2,MSLNIETIVKGRRMITKFPPQWQEKLDQVAFTHLTPIQEQAFQPIVDGKNFLGISPTGTGKTLAYVFPSLLALTPKKSQQLLILAPNTELAGQIFEVTKDWAQPLGLTAQLFISGTSQKRQIERLKKGPEILIGTPGRIFELIKLKKIKMMSVNTIVLDEYDELLGDSQYDFVQKISHYVPRDHQMVYMSATNKVDQTSLAPNTFCIDLSEQTNDAIQHFYLMVDKRERTDLLRKFANIPHFRALVFFNSLSDLGATEERLQYNGAAAVSLASDINVKFRKTILEKFKSHQLSLLLATDLVARGIDIDNLDYVIHFDVARDKENYTHRAGRTGRMGKSGIVITFVSHPEDLKKLKKFAKVSEISLKNQQLHFINEGHHHHHH,not soluble
3,MSLNIHIHSMTGFANAAAECGSKRINLDIRAVNHRFLDIQIRMPDDLRYLESGIREKISSHIARGKVECKIQIQDTENSRQSLELNSDLVNQLAEINKNLRKHHDLAKLGVADILRFPGVLASQRENTEELAKSITELTEKALKDFTAARRREGKKLGEHLLQRLESMEEIIDALSELFPTLLETHKEKIRARLVEAVGDINNDRLQQEFALFIQKSDIDEEFSRLRTHIAEVRRIVTEHKGSSGKRLDFLMQELNREANTLGSKSIAAECTQASVELKVLIEQMREQVQNIEEGHHHHHH,soluble
4,MSLNIKEASEKSGVSADTIRYYERIGLIPPIHRNESGVRKFGAEDLRWILFTRQMRRAGLSIEALIDYLALFREGEHTLEARAELLKKQRIELKNRIDVMQEALDRLDFKIDNYEGHHHHHH,not soluble
5,MSLNILIIAFEGIEGSGKTSHLEATKKYLEKEGYGVVTFGLQMSKLIGDRIAQVKRNIIFERRTLFLAYVTDLADQIENYVKPSIDSGFIALADGYTLTLTSWGLTRGLEKEWIDDVLSMLPKPSISLPLISTPDEIVRRIIKKRGYLDPLETGIDICIKEDTFEAYIDYINRFQEALMSISSRENIIYTDKEFDEVQKEIVRRIDNITEGHHHHHH,soluble
6,MSLNINDALTSILASKKYRALCPDTVRRILTEEWGRHKSPKQTVEAARTRLHGICGAYVTPESLKAAAAALSAGDVKKALSLHASTKERLAELDTLYDFIFSAETPRRVLDIACGLNPLALYERGIASVWGCDIHQGLGDVITPFAREKDWDFTFALQDVLCAPPAEAGDLALIFKLLPLLEREQAGSAMALLQSLNTPRMAVSFPTRSLGGRGKGMEANYAAWFEGGLPAEFEIEDKKTIGTELIYLIKKNGEGHHHHHH,soluble
7,MSLNKAMQEVNLEDSLKFFEQAANQPAALLKVQTQWWEQQLQIWQKVVLESKIQSIMEAEKGDKRFSHEAWQQDPFFNFIKQSYLLFSKTYLDTINAIEGLDEKAKERILFFSRQMINALSPSNFIATNPELLRLTLEKNGENLIAGLEQLKEDVASSADILKIRMTNNNAFRLGEDVANTPGEVVFKNEVFELIQYKPLTEQVAVTPLLIVPPFINKYYILDLREKNSMVRWLVEQGHSVFMISWRNPGAAQAQLNFEDYVLEGVVKAVNAIESITGQEQINAAGYCIGGTVLATTIAYYAAKRMKKRIKTASFFTTLLDFSQPGEVGAYINDTIIRAIELQNNAKGYMDGRSLSVTFSLLRENSLYWNYYVDNYLKGQSPVDFDLLYWNSDSTNVAGACHNFLLRELYLENKLVQDKGVKVGGVWIDLDKIKVPSYFISTKEDHIALWQGTYRGALRTGGNKTFVLGESGHIAGIVNHPDKRKYGYWVNDTLDDSAEDWLETAQHREGSWWVHWNEWLNGFADGSKVEPYPLGNADYPVLYSAPGEYVKQVLPIQEEGHHHHHH,soluble
8,MSLNKNIKSLNLREKDPFLSREKQRYEHPLPSREWIIELLERKGVPSKIESLARELSITEDEYVFFERRLKAMARDGQVLINRRGAVCAADKLDLVKCRVEAHKDGFGFAVPLTPAKDGDFVLYERQMRGIMHGDIVTVRPAGMDRRGRREGTVLDIVERAQSKVVGRFYMDRGVAILEPEDKRLNQSIVLEPDGVARFKPESGQVIVGEIEVYPEQNRPAVAKIIEVLGDYADSGMEIEIAVRKHHLPHQFSEACAKAAKKIPVHVRKSDLKGRVDLRDLPLVTIDGETARDFDDAVFAEKVGRNYRLVVAIADVSHYVRPDDVIDADAQERSTSVYFPRRVIPMLPENLSNGICSLNPDVERLCMVCDMVVTYAGNIKEYRFYPAVMRSHARLTYNQVWKWISDGIDHPYKAQIDTLYKLFKILQKKRFERGAVEFESVETQMIFDDNGKIEKIVPVVRNDAHKLIEECMLAANVCAADFLLKNKHTALFRNHLGPTPEKLATLREQLGLLGLQLGGGDNPSPKDYAALVEQFKGRPDAELLQVMMLRSMQQAVYEPHCDGHFGLAYEAYAHFTSPIRRYPDLTVHRAIKAVLNQQTYTPKKSWQALGVHTSFCERRADDASRDVENWLKTYYMRDKVGEVFEGKISGMTSFGIFVTLDGIHIDGLVHISDLGEDYFNFRPEIMAIEGERSGIRFNMGDRVAVRVARADLDDGKIDFVLIAGGSGRGRKVKSSASAKPAGTAGKGKPKTAAEKKTARGGKVRGRGASAAAESRKKAKKPVPIKVKKRKGKSEGHHHHHH,not soluble
9,MSLNKPKIVILGAGYGGLMTVTRLTKYVGPNDADITLVNKHNYHYETTWMHEASAGTLHHDRCRYQIKDVINQSRVNFVQDTVKAIKIDEKKVVLANGELQYDYLVIGLGAVPETFGIKGLKEYAFPIANINTSRLLREHIELQFATYNTEAEKRPDRLTIVVGGAGFTGIEFLGELAARVPELCKEYDVDRSLVRIICVEAAPTVLPGFDPELVDYAVHYLEENGVEFKIGTAVQECTPEGVRVGKKDEEPEQIKSQTVVWAAGVRGHPIVEEAGFENMRGRVKVNPDLRAPGHDNVFILGDSSLFMNEDTERPYPPTAQIAMQQGITVAKNLGRLIKGGELEEFKPDIKGTVASLGEHNAVGVVYGRKLKGTPASFMKKVIDNRSLFMIGGLGLTLKKGKFKEGHHHHHH,soluble
10,MSLNPEEEVITLMKKAGIDLVATLPCDRIKNLLPLVSKNFPEIKMTREENGVGICAGFYLAGGKPLMLIQSTGLGNMINALESLNVTCKIPLPVLTSWRGVYKEAIEAQVPLGVHLPAILEGAGLAYTIIDEVEKLHQIENVISDAFENSRPHIALISPKVWEASECCAWQGAGMPEKPEVMERTCSIFLKKEVLKPVMLRNDAICAIASELDDEVTVTNLGVPCKELYACKDRDLNFYMFGSMGLVSSIGMGIALRSEKTVVAFDGDGSLLMNPNALLEIAKESPKNLIIIALDNGAYGSTGSQETCALRYIDLEIFANACGITNTAKVNAREELIKIFKKFRDMKELALIHVILKPGNTNAPNIPLSPEGAAKRFKEALEAKKNEGHHHHHH,soluble
11,MSLNRNDKRGARRNILAHYDLGNALFERLLDPTMMYSAAQFEHPGQTLEQAQLHKLERICQKLELSPDDHLLEIGSGWGSLAIHAATRYGCRVTTTTLSEAQYSHTLERVKALGLGQRVQVLREDYRDLQGTFDKLVSIEMIEAVGHRYLPVYFRQCASLLKPEGLMLLQAITIRDQRYAQAQRSVDFIQRYIFPGGALPSLSVLLDTASRHTGLNLVHMEDFGLDYAHTLRHWRENLRQARTALTDLGYDDMFQRLWEFYLCYCQGGFEERAIGVAHLLWAAEGHHHHHH,soluble
12,MSLNRYSVHPEQVKRFTTEELRSHFLMDSLFTENKLTMYYSHEDRVVIGGAAPGQSELKLDAGDFLKTDFFLERREIGIINVGQPGAVRVGDDEYVLQTKDFLYIGMGNQDVSFSSLNGEKAKFYFVSACAHKSYPTQKAALSELTPDRLGDDAASNVRSLYKVIHQDGIKSCQLMMGITMLDQNNNWNTMPAHVHDRRMEAYLYLDLEKDSKVFHFMGQPDETRHLVVGNEQAVLSPAWSIHSGAGTSNYSFVWAMAGENYTFTDMDLIPMDGLKEGHHHHHH,soluble
13,MSLNSATHLAAHEGSARRRQALGEFVRTARARITPQMAGLPAGSRRRTPGLRREEVAQLSDISVTWYTWIEQGREVTVSPAVWARIANVLHLARAERAYLFELAECADPQQPRDEGGDAPVSLQACVDAIDAPAYALDRAWNLLASNAAMRELFDDWPLRDAQPNLLRYIFLDPAARELVVDWDQRARRVVAEFRADAGAHLDEADVVALLDELNRASPVFAHWWTRHAVVEREGGLREFQHPRSGRQNLQQITFRLATHPELKLVMLLPSEGHHHHHH,soluble
14,MSLNTLLMHCRPGFEGEVCAEIAEHAATLEIPGYAKSKPASAHVEFVCQDADGAERLMRRLRFADLIFPRQWARGPGFIELPESQRIEVLLAELASYPVCGSLWLEVLDTNAGKEVSTFCRKFEKPLRAALVKAGRLQEDPALPRLLLTFRSGREVFVGLAEPRNSALWPMGIPRLKFPREAPSRSTLKLEEAWHQFIPRSEWDKRLAPDMLAVDLGAAPGGWTWQLVNREMRVTAVDNGPMAENLMYSGLVDHQKVDGYQYRPRQRVDWMVCDIVEKPARTGALIETWIGEGLCREAVVNLKLPMKQRYAEVRKILQRLRESFDARGLKVAIGCKQLYHDREEVTCHLRRLEREGGSHHHHHH,soluble
15,MSLNVDPNITKYVIKAKIVTDGVVEKPDVVGAIFGQTEGLLGEELDLRDLQKSGKIGRIEVEIDTKKGRTEGFVLIPSGLDQVESSILAAALETIDRIGPCKAKVDIEDVEDVRINKRDKVIQRAEELYKKMGTNGKSLSESIIQSVREEVEKKEILSYGEEHLPAGPAVGTSDSIIVVEGRNDVLNLLRYGIKNTIAVQGTSVPKTVKELSKARTVTLFVDGDHGGELIIKEMLQVADVDFIARAPPGTEVEELTYKQIVKALKYKAPVNQYLESHGMIEELKEFTEKNNKAIADMNVNTTVKEEPQQKKQEKEPKHVETAEVEAPVIEEINDINDPRFVRNKLNELFESKAVEIYDDAGNPIARYPVSDAAELMQSVKNGTTIISGGVISQRFVDIAFSMGVKSIYGMKIGHVTKKPDEIRVVTWEHMEGHHHHHH,soluble
16,MSLNVQTVAVIGSGTMGAGIAEVAASHGHQVLLYDISAEALTRAIDGIHARLNSRVTRGKLTAETCERTLKRLIPVTDIHALAAADLVIEAASERLEVKKALFAQLAEVCPPQTLLTTNTSSISITAIAAEIKNPERVAGLHFFNPAPVMKLVEVVSGLATAAEVVEQLCELTLSWGKQPVRCHSTPGFIVNRVARPYYSEAWRALEEQVAAPEVIDAALRDGAGFPMGPLELTDLIGQDVNFAVTCSVFNAFWQERRFLPSLVQQELVIGGRLGKKSGLGVYDWRAEREAVVGLEAVSDSFSPMKVEKKSDGVTEIDDVLLIETQGETAQALAIRLARPVVVIDKMAGKVVTIAAAAVNPDSATRKAIYYLQQQGKTVLQIADYPGMLIWRTVAMIINEALDALQKGVASEQDIDTAMRLGVNYPYGPLAWGAQLGWQRILRLLENLQHHYGEERYRPCSLLRQRALLESGYESEGHHHHHH,soluble
17,MSLPGNNSAKGTATGNATALWRNAQLATLNPAMDGIGAVENAVIAVRNGRIAFAGPESDLPDDLSTADETTDCGGRWITPALIDCHTHLVFGGNRAMEFEMRLNGATYEEIAKAGGGIVSSVRDTRALSDEVLVAQALPRLDTLLSEGVSTIEIKSGYGLDIETELKMLRVARRLETLRPVRIVTSYLAAHATPADYKGRNADYITDVVLPGLEKAHAEGLADAVDGFCEGIAFSVKEIDRVFAAAQQRGLPVKLHAEQLSNLGGAELAASYNALSADHLEYLDETGAKALAKAGTVAVLLPGAFYALREKQLPPVQALRDAGAEIALATDCNPGTSPLTSLLLTMNMGATLFRMTVEECLTATTRNAAKALGLLAETGTLEAGKSADFAIWDIERPAELVYRIGFNPLHARIFKGQKVSPEGHHHHHH,soluble
